Laboratory results taken from US20160272683A1 (Novo Nordisk, published 2016).
Numbered stars: 1 amine (or outer) side, 2 acyl side, 3 side chain; on linkers, the order of the positions; unused ones are H or OH. * marks the point of attachment. C20 diacid = O=C(O)CCCCCCCCCCCCCCCCCCC(=O)*; C18 diacid = O=C(O)CCCCCCCCCCCCCCCCC(=O)*; γGlu = O=C(O)[C@H](CCC(=O)[*:2])N[*:1]; C14 diacid = O=C(O)CCCCCCCCCCCCC(=O)*

T1: human amylin receptor (human calcitonin receptor + human RAMP3) (human) (UniProt P30988)
T1 sequence (looked up) 1: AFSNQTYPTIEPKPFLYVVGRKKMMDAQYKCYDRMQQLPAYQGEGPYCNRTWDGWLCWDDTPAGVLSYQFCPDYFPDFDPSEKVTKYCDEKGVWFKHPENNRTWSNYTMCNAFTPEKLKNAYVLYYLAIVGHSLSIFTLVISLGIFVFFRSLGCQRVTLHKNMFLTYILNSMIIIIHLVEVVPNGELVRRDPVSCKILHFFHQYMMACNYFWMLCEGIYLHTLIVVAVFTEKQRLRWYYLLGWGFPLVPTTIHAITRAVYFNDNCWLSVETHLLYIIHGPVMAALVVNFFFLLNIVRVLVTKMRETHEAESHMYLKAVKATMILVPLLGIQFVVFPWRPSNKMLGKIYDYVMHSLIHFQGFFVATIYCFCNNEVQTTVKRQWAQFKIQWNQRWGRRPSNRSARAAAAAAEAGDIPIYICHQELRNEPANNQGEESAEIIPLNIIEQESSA
T1 sequence (looked up) 2: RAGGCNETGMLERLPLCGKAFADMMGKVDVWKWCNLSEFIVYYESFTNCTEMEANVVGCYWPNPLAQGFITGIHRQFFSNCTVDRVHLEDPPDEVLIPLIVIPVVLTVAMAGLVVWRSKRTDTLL


Biological target: T1, human amylin receptor (human calcitonin receptor + human RAMP3) (human)
Assay: whole-cell competition vs 125I-rat amylin (Assay Va)

| Binder | IC50 [nM] |
| --- | --- |
| {C18 diacid}-EASELHTAALGRLSAELHELATLPRTETGPESP-NH2 (SMILES CC(C)C[C@H](NC(=O)[C@H](C)NC(=O)[C@H](C)NC(=O)[C@@H](NC(=O)[C@H](Cc1c[nH]cn1)NC(=O)[C@H](CC(C)C)NC(=O)[C@H](CCC(=O)O)NC(=O)[C@H](CO)NC(=O)[C@H](C)NC(=O)[C@H](CCC(=O)O)NC(=O)CCCCCCCCCCCCCCCCC(=O)O)[C@@H](C)O)C(=O)NCC(=O)N[C@@H](CCCNC(=N)N)C(=O)N[C@@H](CC(C)C)C(=O)N[C@@H](CO)C(=O)N[C@@H](C)C(=O)N[C@@H](CCC(=O)O)C(=O)N[C@@H](CC(C)C)C(=O)N[C@@H](Cc1c[nH]cn1)C(=O)N[C@@H](CCC(=O)O)C(=O)N[C@@H](CC(C)C)C(=O)N[C@@H](C)C(=O)N[C@H](C(=O)N[C@@H](CC(C)C)C(=O)N1CCC[C@H]1C(=O)N[C@@H](CCCNC(=N)N)C(=O)N[C@H](C(=O)N[C@@H](CCC(=O)O)C(=O)N[C@H](C(=O)NCC(=O)N1CCC[C@H]1C(=O)N[C@@H](CCC(=O)O)C(=O)N[C@@H](CO)C(=O)N1CCC[C@H]1C(N)=O)[C@@H](C)O)[C@@H](C)O)[C@@H](C)O) [[N-terminal(C18 diacid), 6H]mimylin] | 1.31 |
| {C18 diacid}-EASELSTAALGRLSAELAELATLPRTETGPESP-NH2 (SMILES CC(C)C[C@H](NC(=O)[C@H](C)NC(=O)[C@H](C)NC(=O)[C@@H](NC(=O)[C@H](CO)NC(=O)[C@H](CC(C)C)NC(=O)[C@H](CCC(=O)O)NC(=O)[C@H](CO)NC(=O)[C@H](C)NC(=O)[C@H](CCC(=O)O)NC(=O)CCCCCCCCCCCCCCCCC(=O)O)[C@@H](C)O)C(=O)NCC(=O)N[C@@H](CCCNC(=N)N)C(=O)N[C@@H](CC(C)C)C(=O)N[C@@H](CO)C(=O)N[C@@H](C)C(=O)N[C@@H](CCC(=O)O)C(=O)N[C@@H](CC(C)C)C(=O)N[C@@H](C)C(=O)N[C@@H](CCC(=O)O)C(=O)N[C@@H](CC(C)C)C(=O)N[C@@H](C)C(=O)N[C@H](C(=O)N[C@@H](CC(C)C)C(=O)N1CCC[C@H]1C(=O)N[C@@H](CCCNC(=N)N)C(=O)N[C@H](C(=O)N[C@@H](CCC(=O)O)C(=O)N[C@H](C(=O)NCC(=O)N1CCC[C@H]1C(=O)N[C@@H](CCC(=O)O)C(=O)N[C@@H](CO)C(=O)N1CCC[C@H]1C(N)=O)[C@@H](C)O)[C@@H](C)O)[C@@H](C)O) [[N-terminal(C18 diacid), 18A]mimylin] | 0.329 |
| {C14 diacid-γGlu}-ASELSTAALGRLSAELHELATLPRTETGPESP-NH2 [[N-terminal(C14 diacid-gGlu), des1]mimylin] | 1.14 |
| {C18 diacid}-EASELSTLALGRLSAELHELATLPRTETGPESP-NH2 (SMILES CC(C)C[C@H](NC(=O)[C@H](C)NC(=O)[C@H](CC(C)C)NC(=O)[C@@H](NC(=O)[C@H](CO)NC(=O)[C@H](CC(C)C)NC(=O)[C@H](CCC(=O)O)NC(=O)[C@H](CO)NC(=O)[C@H](C)NC(=O)[C@H](CCC(=O)O)NC(=O)CCCCCCCCCCCCCCCCC(=O)O)[C@@H](C)O)C(=O)NCC(=O)N[C@@H](CCCNC(=N)N)C(=O)N[C@@H](CC(C)C)C(=O)N[C@@H](CO)C(=O)N[C@@H](C)C(=O)N[C@@H](CCC(=O)O)C(=O)N[C@@H](CC(C)C)C(=O)N[C@@H](Cc1c[nH]cn1)C(=O)N[C@@H](CCC(=O)O)C(=O)N[C@@H](CC(C)C)C(=O)N[C@@H](C)C(=O)N[C@H](C(=O)N[C@@H](CC(C)C)C(=O)N1CCC[C@H]1C(=O)N[C@@H](CCCNC(=N)N)C(=O)N[C@H](C(=O)N[C@@H](CCC(=O)O)C(=O)N[C@H](C(=O)NCC(=O)N1CCC[C@H]1C(=O)N[C@@H](CCC(=O)O)C(=O)N[C@@H](CO)C(=O)N1CCC[C@H]1C(N)=O)[C@@H](C)O)[C@@H](C)O)[C@@H](C)O) [[N-terminal(C18 diacid), 8L]mimylin] | 0.275 |
| {C18 diacid}-EASELSTAALGRLSAELHEIATLPRTETGPESP-NH2 (SMILES CC[C@H](C)[C@H](NC(=O)[C@H](CCC(=O)O)NC(=O)[C@H](Cc1c[nH]cn1)NC(=O)[C@H](CC(C)C)NC(=O)[C@H](CCC(=O)O)NC(=O)[C@H](C)NC(=O)[C@H](CO)NC(=O)[C@H](CC(C)C)NC(=O)[C@H](CCCNC(=N)N)NC(=O)CNC(=O)[C@H](CC(C)C)NC(=O)[C@H](C)NC(=O)[C@H](C)NC(=O)[C@@H](NC(=O)[C@H](CO)NC(=O)[C@H](CC(C)C)NC(=O)[C@H](CCC(=O)O)NC(=O)[C@H](CO)NC(=O)[C@H](C)NC(=O)[C@H](CCC(=O)O)NC(=O)CCCCCCCCCCCCCCCCC(=O)O)[C@@H](C)O)C(=O)N[C@@H](C)C(=O)N[C@H](C(=O)N[C@@H](CC(C)C)C(=O)N1CCC[C@H]1C(=O)N[C@@H](CCCNC(=N)N)C(=O)N[C@H](C(=O)N[C@@H](CCC(=O)O)C(=O)N[C@H](C(=O)NCC(=O)N1CCC[C@H]1C(=O)N[C@@H](CCC(=O)O)C(=O)N[C@@H](CO)C(=O)N1CCC[C@H]1C(N)=O)[C@@H](C)O)[C@@H](C)O)[C@@H](C)O) [[N-terminal(C18 diacid), 20I]mimylin] | 0.511 |
| {C18 diacid}-EASEHSTAALGRLSAELHELATLPRTETGPESP-NH2 (SMILES CC(C)C[C@H](NC(=O)[C@H](C)NC(=O)[C@H](C)NC(=O)[C@@H](NC(=O)[C@H](CO)NC(=O)[C@H](Cc1c[nH]cn1)NC(=O)[C@H](CCC(=O)O)NC(=O)[C@H](CO)NC(=O)[C@H](C)NC(=O)[C@H](CCC(=O)O)NC(=O)CCCCCCCCCCCCCCCCC(=O)O)[C@@H](C)O)C(=O)NCC(=O)N[C@@H](CCCNC(=N)N)C(=O)N[C@@H](CC(C)C)C(=O)N[C@@H](CO)C(=O)N[C@@H](C)C(=O)N[C@@H](CCC(=O)O)C(=O)N[C@@H](CC(C)C)C(=O)N[C@@H](Cc1c[nH]cn1)C(=O)N[C@@H](CCC(=O)O)C(=O)N[C@@H](CC(C)C)C(=O)N[C@@H](C)C(=O)N[C@H](C(=O)N[C@@H](CC(C)C)C(=O)N1CCC[C@H]1C(=O)N[C@@H](CCCNC(=N)N)C(=O)N[C@H](C(=O)N[C@@H](CCC(=O)O)C(=O)N[C@H](C(=O)NCC(=O)N1CCC[C@H]1C(=O)N[C@@H](CCC(=O)O)C(=O)N[C@@H](CO)C(=O)N1CCC[C@H]1C(N)=O)[C@@H](C)O)[C@@H](C)O)[C@@H](C)O) [[N-terminal(C18 diacid), 5H]mimylin] | 0.832 |
| {C18 diacid}-EASELSTAALGRLSAELHELATLPRTETGSGSP-NH2 [[N-terminal(C18 diacid), 30S, 31G]mimylin] | 0.187 |

Further lines, results first:

| IC50 [nM] | Binder |
| --- | --- |
| 0.83 | {C18 diacid-γGlu}-ASELSTAALGRLSAELHELATLPRTETGSESP-NH2 (SMILES CC(C)C[C@H](NC(=O)[C@H](C)NC(=O)[C@H](C)NC(=O)[C@@H](NC(=O)[C@H](CO)NC(=O)[C@H](CC(C)C)NC(=O)[C@H](CCC(=O)O)NC(=O)[C@H](CO)NC(=O)[C@H](C)NC(=O)CC[C@H](NC(=O)CCCCCCCCCCCCCCCCC(=O)O)C(=O)O)[C@@H](C)O)C(=O)NCC(=O)N[C@@H](CCCNC(=N)N)C(=O)N[C@@H](CC(C)C)C(=O)N[C@@H](CO)C(=O)N[C@@H](C)C(=O)N[C@@H](CCC(=O)O)C(=O)N[C@@H](CC(C)C)C(=O)N[C@@H](Cc1c[nH]cn1)C(=O)N[C@@H](CCC(=O)O)C(=O)N[C@@H](CC(C)C)C(=O)N[C@@H](C)C(=O)N[C@H](C(=O)N[C@@H](CC(C)C)C(=O)N1CCC[C@H]1C(=O)N[C@@H](CCCNC(=N)N)C(=O)N[C@H](C(=O)N[C@@H](CCC(=O)O)C(=O)N[C@H](C(=O)NCC(=O)N[C@@H](CO)C(=O)N[C@@H](CCC(=O)O)C(=O)N[C@@H](CO)C(=O)N1CCC[C@H]1C(N)=O)[C@@H](C)O)[C@@H](C)O)[C@@H](C)O) [[N-terminal(C18 diacid-gGlu), des1, 30S]mimylin] |
| 1.26 | {C18 diacid}-EASELSTAALGRLSAELHELATLPRTETGPEHP-NH2 (SMILES CC(C)C[C@H](NC(=O)[C@H](C)NC(=O)[C@H](C)NC(=O)[C@@H](NC(=O)[C@H](CO)NC(=O)[C@H](CC(C)C)NC(=O)[C@H](CCC(=O)O)NC(=O)[C@H](CO)NC(=O)[C@H](C)NC(=O)[C@H](CCC(=O)O)NC(=O)CCCCCCCCCCCCCCCCC(=O)O)[C@@H](C)O)C(=O)NCC(=O)N[C@@H](CCCNC(=N)N)C(=O)N[C@@H](CC(C)C)C(=O)N[C@@H](CO)C(=O)N[C@@H](C)C(=O)N[C@@H](CCC(=O)O)C(=O)N[C@@H](CC(C)C)C(=O)N[C@@H](Cc1c[nH]cn1)C(=O)N[C@@H](CCC(=O)O)C(=O)N[C@@H](CC(C)C)C(=O)N[C@@H](C)C(=O)N[C@H](C(=O)N[C@@H](CC(C)C)C(=O)N1CCC[C@H]1C(=O)N[C@@H](CCCNC(=N)N)C(=O)N[C@H](C(=O)N[C@@H](CCC(=O)O)C(=O)N[C@H](C(=O)NCC(=O)N1CCC[C@H]1C(=O)N[C@@H](CCC(=O)O)C(=O)N[C@@H](Cc1c[nH]cn1)C(=O)N1CCC[C@H]1C(N)=O)[C@@H](C)O)[C@@H](C)O)[C@@H](C)O) [[N-terminal(C18 diacid), 32H]mimylin] |
| 0.24 | {C20 diacid}-EASELSTAALGRLSAELHELATLPRTETGSGSP-NH2 [[N-terminal(C20 diacid), 30S, 31G]mimylin] |
